# Source: IntAct's records for PubMed 14669021
# B1: Protein ORD (Drosophila melanogaster (Fruit fly)), Q24434 (parent)
# chain: MYGETTLNKNHVIKFIKLKINNCLGCDEVEINFSKADNVHIIIYSLVTDMAKDLPAVTPVAQAILLLCSLTYPDSDSLETIPQLKIGKGSVSMSFKVYPVNKEEETEPESESDLDEGPSTSKQALERMVQRAERKAKEASTRNVHSKGIYVNVERRFDMYFALDTVSYYINGGKRQSCPLPEFHAKFFVRPQHSINLLRQLHEKCSGNWLKVIQSDGDGDAFKKFKDPDSPFETFVKLFESNPIKPNDMMGKLAKTCLHVNEAVRLTEREFILEVFNQVRHIFEYITAQEYTVWFLVPCLGDKDQLRSKTLEDFDLTKVRTSIRRAGDTSNIWWDHTDHNIKDILLVAFQLDLATHVNQSVLVISHLETLAEFSTMQYVTAFFMNDFYAKKNTEPKWICHRYLERIIDVALFLGVIVIIEYPSAFTLLQEGRHLIKCFQKENADSSRTSQWEIFEDVVKENESDLEFLKEAVGKVQQNV
# partner: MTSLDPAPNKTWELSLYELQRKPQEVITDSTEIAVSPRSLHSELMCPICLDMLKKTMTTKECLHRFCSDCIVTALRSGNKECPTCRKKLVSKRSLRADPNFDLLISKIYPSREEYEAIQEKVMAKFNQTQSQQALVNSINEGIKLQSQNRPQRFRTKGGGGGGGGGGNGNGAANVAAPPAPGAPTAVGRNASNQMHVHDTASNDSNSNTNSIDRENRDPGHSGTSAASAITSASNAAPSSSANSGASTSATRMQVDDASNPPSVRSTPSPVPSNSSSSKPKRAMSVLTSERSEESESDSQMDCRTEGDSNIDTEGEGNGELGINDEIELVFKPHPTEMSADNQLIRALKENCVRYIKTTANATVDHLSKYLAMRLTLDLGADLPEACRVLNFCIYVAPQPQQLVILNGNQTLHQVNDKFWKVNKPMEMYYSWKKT
# Variants of: B1
# Conditions: with ring1_drome Sce
row,effect of a mutation on the interaction,Variant
1,decreasing interaction,MYGETTLNKNHVIKFIKLKINNCLGCDEVEINFSKADNVHIIIYSLVTDMAKDLPAVTPVAQAILLLCSLTYPDSDSLETIPQLKIGKGSVSMSFKVYPVNKEEETEPESESDLDEGPSTSKQALERMVQRAERKAKEASTRNVHSKGIYVNVERRFDMYFALDTVSYYINGGKRQSCPLPEFHAKFFVRPQHSINLLRQLHEKCSGNWLKVIQSDGDGDAFKKFKDPDSPFETFVKLFESNPIKPNDMMGKLAKTCLHVNEAVRLTEREFILEVFNQVRHIFEYITAQEYTVWFLVPCLGDKDQLRSKTLEDFDLTKVRTSIRRAGDTSNIWWDHTDHNIKDILLVAFQLDLATHVNQSVLVISHLETLAEFSTMQYVTAFFMNDFYAKKNTEPKWICHRYLERIIDVALFLGVIDIIEYPSAFTLLQEGRHLIKCFQKENADSSRTSQWEIFEDVVKENESDLEFLKEAVGKVQQNV [V417D]
